Laboratory results from paper PMC5017159.

What was measured:
[1] = target: human heat shock protein 70 (hHsp70) (human) (UniProt P0DMV8); assay: BLI; Octet Red; biotinylated hHsp70 immobilised on streptavidin tips, dipped into E. coli GAPDH (39.5, 59.3, 88.9, 133.3 and 200 nM) in PBS; association 600 s, dissociation 900 s; 1:1 model
human GAPDH (human) = human GAPDH (human) (UniProt P04406); assay: BLI; Octet Red; biotinylated human GAPDH immobilised on streptavidin tips, dipped into hHsp70 (2.05, 5.12, 12.8, 32 and 80 nM) in PBS; association 600 s, dissociation 900 s; 1:1 model
Chain of UniProt P04406 (P04406 whole entry): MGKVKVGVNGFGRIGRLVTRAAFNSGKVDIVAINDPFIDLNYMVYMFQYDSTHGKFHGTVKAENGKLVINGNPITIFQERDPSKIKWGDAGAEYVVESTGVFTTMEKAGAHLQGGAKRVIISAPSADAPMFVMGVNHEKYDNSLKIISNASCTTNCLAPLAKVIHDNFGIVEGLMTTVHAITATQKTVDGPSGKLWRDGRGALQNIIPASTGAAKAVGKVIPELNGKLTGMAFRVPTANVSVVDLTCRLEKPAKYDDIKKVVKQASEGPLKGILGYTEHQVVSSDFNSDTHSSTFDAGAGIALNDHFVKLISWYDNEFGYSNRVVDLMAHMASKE

Row | Substance | Kd [1] [nM] | koff [1] [s⁻¹] | kon [1] [M⁻¹ s⁻¹] | Kd (human GAPDH (human)) [nM] | koff (human GAPDH (human)) [s⁻¹] | kon (human GAPDH (human)) [M⁻¹ s⁻¹]
1 | E. coli glyceraldehyde 3-phosphate deshydrogenase (GAPDH), recombinant (from UniProt P0A9B2 1-331) (enzyme) | 8.2 | 0.00024 | 29300 |  |  | 
2 | human heat shock protein 70 (hHsp70) (from UniProt P0DMV8 1-641) (natural protein) |  |  |  | 1.3 | 9.3e-05 | 72400
